Article PMC6862464, “Structural Insights into AQP2 Targeting to Multivesicular Bodies” (International Journal of Molecular Sciences, 2019)
Where a chain is given by its changes, count along the chain named.

Tests used:
[1] = target: T1, full-length human LIP5 D65A (human, UniProt Q9NP79 1-307, D65A); assay: other fluorescence titration; Alexa 488-labeled, dephosphorylated AQP2 (around 1 uM) in the cuvette, titrated with unlabeled LIP5; total fluorescence; 20 mM Tris-HCl pH 8, 300 mM NaCl, 0.2% OGNG; triplicate titrations; details: both partners purified
T1 construct: LIP5, human, full length, point mutant; spacer before the TEV site and His tag, as in m2; Mutant of m2; dimer as said of full-length LIP5 (cited); source: E. coli BL21*(DE3), purified (HisTrap, SEC)
T1 sequence: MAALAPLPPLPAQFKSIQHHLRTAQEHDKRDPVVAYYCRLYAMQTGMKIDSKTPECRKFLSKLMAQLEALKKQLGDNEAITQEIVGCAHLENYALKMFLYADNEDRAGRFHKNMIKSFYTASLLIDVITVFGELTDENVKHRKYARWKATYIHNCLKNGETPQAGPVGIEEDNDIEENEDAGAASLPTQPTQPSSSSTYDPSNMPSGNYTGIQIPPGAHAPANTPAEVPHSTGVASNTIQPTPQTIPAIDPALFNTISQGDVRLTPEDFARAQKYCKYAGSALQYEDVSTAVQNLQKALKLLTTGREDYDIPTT

[2] = target: T2, full-length human LIP5 M47A (human, UniProt Q9NP79 1-307, M47A); assay: as above; details: both partners purified
T2 construct: LIP5, human, full length, point mutant; spacer before the TEV site and His tag, as in m2; Mutant of m2; dimer as said of full-length LIP5 (cited); source: E. coli BL21*(DE3), purified (HisTrap, SEC)
T2 sequence: T1 sequence with M47A, A65D

B1: human aquaporin 2 (AQP2), wild-type (natural protein, UniProt P41181 1-271, looked up)
chain: MWELRSIAFSRAVFAEFLATLLFVFFGLGSALNWPQALPSVLQIAMAFGLGIGTLVQALGHISGAHINPAVTVACLVGCHVSVLRAAFYVAAQLLGAVAGAALLHEITPADIRGDLAVNALSNSTTAGQAVTVELFLTLQLVLCIFASTDERRGENPGTPALSIGFSVALGHLLGIHYTGCSMNPARSLAPAVVTGKFDDHWVFWIGPLVGAILGSLLYNYVLFPPAKSLSERLAVLKGLEPDTDWEEREVRRRQSVELHSPQSLPRGTKA
modifications: cysteine residues labeled with C5 maleimide Alexa 488; dephosphorylated with alkaline phosphatase before labeling
notes: concentrations and molar ratios seem to count monomers; His-tag is called uncleavable; also called WT; labeled AQP2; source: Pichia pastoris, purified (HisTrap, SEC) in OGNG; not shown: His-tag, N-terminal, kept
Kd [1]: 0.149 µM
Kd [2]: 0.463 µM
